Test results as given in the supplement of paper PMC12764529.
± gives the half width of the 95% confidence interval.

Key:
[1] = folding stability dG unfold from trypsin proteolysis; higher = more stable
In short: (§1)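 Sequencing followed digestion of designed mini-proteins with trypsin and chymotrypsin, each at 11 concentrations in threefold dilutions together with a no-protease condition. The mini-proteins were under 80 residues, had no cysteine, sat in a PA-tagged cDNA display construct, and were kept only if AlphaFold2 dimer inter-PAE was above 15. From the counts, Bayesian fitting gave K50, and unfolding free energy was derived against a sequence-predicted unfolded-state K50 and a shared folded-state K50, per protease or combined.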

[2] = folding stability dG unfold from chymotrypsin proteolysis; higher = more stable
In short: as §1

[3] = folding stability dG unfold (combined trypsin and chymotrypsin); higher = more stable
In short: as §1

Sequence	folding stability dG unfold [1] [kcal/mol]	folding stability dG unfold [2] [kcal/mol]	folding stability dG unfold [3] [kcal/mol]
SAGGGMQAVSPVKTETKTSPDGTTTTTTTTRYPDGTVVVPVTETSPTGGAKKVATTTVSLGPPSPALASAGG [r13_494_JUSTAS]	-0.315 ± 0.085	1.07 ± 0.033	0.599 ± 0.093
SAGGGMSTTTETTIRIYVKDPQGNPVFVAELTVTVTTSPSGEVTIHLPPEFLKALPPNYTIAKIEVTSAGGS [r16_295_JUSTAS]	3.94 ± 0.21	4.13 ± 0.086	4.06 ± 0.083
SAGGGMSTYTITINIVIDPKEKKVPKPPLKDPFKLPPLKTIPITITAETSDPAVAAALEKAVKEALGLSAGG [r13_35_JUSTAS]	1.73 ± 0.038	2.19 ± 0.054	2 ± 0.069
SAGGGMTFNFTAPDGTPYEDVTTTPLPDGSTLVTVTQEDPKNPGVVTVTLIRLPSGADALEVTSGPVVSAGG [r13_370_JUSTAS]	0.972 ± 0.07	0.803 ± 0.087	0.944 ± 0.095
SAGGGMTPTITVTVHYPGETVTITLSSIEEALEYLKKQGLPINPTHSDPNTLVIEFPDGRTVTITLSSAGGS [r8_365_JUSTAS]	3.67 ± 0.15	4.15 ± 0.16	3.98 ± 0.15
SAGGGMVRPSIKITKHPDTYVATVTVTHPHRPVTVTLPFSSEPEAISEAEKIVEELIATPVPSPAGASAGGS [r16_24_JUSTAS]	0.775 ± 0.037	0.831 ± 0.072	0.841 ± 0.11
SAGGGNKPKIKVLLFFPDRVVELEFESPEEFIRALEEAGFPVIPVSEDSKYLVIEFPDGLRALADFSSAGGS [r8_365_TrMRF]	2.44 ± 0.049	2.476 ± 0.014	2.48 ± 0.046
SAGGGNVTKTSTTTLPNGTTLVTYTGTSPSSAGSKNLSLLSLPFDVTVTKVEFDPNTGKVTIETVIPPSAGG [r13_413_JUSTAS]	0.516 ± 0.059	1.25 ± 0.14	0.978 ± 0.13
SAGGGPAAEVARLLREAGYDVEVEVEVFSREENPPLLPGEPLVVRVRVYATPPTGPRRPLGEFVVPVGSAGG [r13_874_TrMRF]	1.47 ± 0.035	2.49 ± 0.029	2.17 ± 0.06
SAGGGPAKEVPILALIKARNPETGEEYELPIVITANSKEDVEAAKGLVDTLAEALRELGFTEVEVEIGSAGG [r13_360_TrMRF]	2.97 ± 0.069	2.72 ± 0.042	2.83 ± 0.058
SAGGGPDEVSEVKVSSTTTDPATGKTYTVDTTTVTTPGTVTTNTTYTVHDPVTGAVTTETTTTTTPPGSAGG [r13_206_JUSTAS]	0.583 ± 0.034	0.481 ± 0.075	0.59 ± 0.045
SAGGGPDLVIDVEILEIRVEPEPGKTATIRVRALIYNPETDTWTLAEFEIRIPDDGSVEVRFRVEPLRSAGG [r13_917_TrMRF]	3.08 ± 0.082	4.13 ± 0.05	3.76 ± 0.074
SAGGGPLSPGSVPVEEEVTEVVEDPATGTVTTRSRVRYPDGVEVEVTTTTPAPGLPEVSTTEVTVRPASAGG [r13_894_JUSTAS]	0.978 ± 0.044	0.948 ± 0.018	0.929 ± 0.11
SAGGGPPAKPVYLTVTVTTEDPVETAKKVEEEVKKLFPDAEILKVEVKKNPETNLYTVTVYVKKLVKSAGGS [r8_120_TrMRF]	2.67 ± 0.075	4.58 ± 0.079	4.3 ± 0.092
SAGGGPPSSMVKKTYTVTGTDPDALAAAVRAAIAAAHPDVEITEVTVSRDPSSDRYTVTVDVLSSVASAGGS [r8_120_JUSTAS]	2.22 ± 0.036	2.638 ± 0.017	2.51 ± 0.051
SAGGGPSMTITVTVSSSELTSGSGPGPLTPEDVAKRLEAELPPGNVTVTVVEVDPATGEVTVRIEVESAGGS [r16_284_JUSTAS]	1.17 ± 0.064	1.1 ± 0.034	1.17 ± 0.077
SAGGGREIKVEFEIPHPNGNQMRITVTIYRSPGGIRIKIPVSYTDPEYRDYMREWAEYLARRIAKELSAGGS [r8_416_TrROS]	3.05 ± 0.089	3.571 ± 0.022	3.46 ± 0.047
SAGGGRPILFRPPDGSVEVVPVPADATLEEVKEVAEAAAAARGYTELSFDPATETVTIDLGGDRVEAASAGG [r13_572_JUSTAS]	-1.46 ± 0.47	0.824 ± 0.024	0.426 ± 0.049
